Results on three molecules are retold here after patent US20140275490A1 (Astellas, published 2014).

Assay [1] addresses T1, human IL-23R-mouse Fc fusion protein (human; mouse, UniProt Q5VWK5 24-353).
T1 construct: Expressed in FreeStyle 293 cells, purified; immobilized on the ELISA plate at 500 ng/mL; also called human IL-23R-Fc fusion protein; not shown: Fc region of mouse immunoglobulin (IgG2a) as encoded by the vector pFUSE-mIgG2A-Fc2 (InvivoGen); limits and any linker r
T1 sequence: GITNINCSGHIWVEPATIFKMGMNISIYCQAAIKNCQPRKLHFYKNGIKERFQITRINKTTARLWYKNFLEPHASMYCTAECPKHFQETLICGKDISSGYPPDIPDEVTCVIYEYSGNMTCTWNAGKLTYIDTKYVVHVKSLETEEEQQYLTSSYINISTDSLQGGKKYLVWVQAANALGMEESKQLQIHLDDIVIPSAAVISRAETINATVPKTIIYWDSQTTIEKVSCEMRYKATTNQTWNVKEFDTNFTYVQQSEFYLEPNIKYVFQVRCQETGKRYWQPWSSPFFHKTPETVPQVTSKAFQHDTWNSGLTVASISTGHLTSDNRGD
Nature of the assay: antigen ELISA, human IL-23R-Fc immobilized, HRP anti-mouse Ig, chemiluminescence. The method, then: (§1) The present inventors used an antigen ELISA to measure the antigen-specific binding activity of the antibody. The human or monkey IL-23R-Fc fusion protein was immobilized onto a Maxisorp 384-well plate (Nunc, Inc.) at a concentration of 500 ng/mL. A blocking agent (Blocking One; Nacalai Tesque, Inc.) was added thereto and allowed to stand at room temperature for 1 hour, followed by washing twice with a wash buffer [TPBS: a phosphate buffered saline (PBS) containing 0.05% Tween-20], and the purified antibody samples were suitably serially diluted and added thereto. Incubation was performed at room temperature for 1 hour, followed by washing four times with TPBS, and HRP-rabbit anti-mouse Ig antibody (DAKO) which was 2000-fold diluted with a dilution buffer was added. Incubation was performed at room temperature for 1 hour, followed by washing four times with a wash buffer. A BM-chemiluminescence ELISA substrate (POD) (Roche Diagnostics), which is a reagent for detecting chemical luminescence, was added, and the amount of chemiluminescence was measured with an EnVision counter (Perkin Elmer). Each antibody was tested in duplicate and the EC50 was analyzed by curve fitting. In this test, a fusion antibody obtained by replacing the Fc region of the known humanized anti-human IL-23R antibody hum20D7 (patent document 1) with the mouse Fc region (hereinafter referred to as hum20D7-mFc) was used as a comparative antibody. Also, the reason why the hum20D7 was fused with the mouse Fc region to prepare a fusion protein was to use anti-mouse Ig antibody as secondary antibody, and the mouse Fc region could be recognized by the anti-mouse Ig antibody, thereby rendering it possible to measure activity.

Assay [2] concerns the target T2, monkey IL-23R-mouse Fc fusion protein (monkey; mouse).
T2 construct: extracellular domain; also called monkey IL-23R-Fc fusion protein
Nature of the assay: antigen ELISA, monkey IL-23R-Fc immobilized, HRP anti-mouse Ig, chemiluminescence. The method, then:
as §1
Background: In an ELISA, binding on a coated surface is turned into a signal by an enzyme label.

B1: 32-28 (chimeric) (antibody, V domains shown)
VH: QVHLVQSGTEVRKPGASVKVSCKVSGYTLNELAIHWVRQAPGKGLEWMGGFDPEHGEIIYAQRFQGRVTLPEDTSTDTAYLDLFNLRSEDTAVYFCATEAAPFDYWGQGTLVIVSS
VL: DIQMTQSPSTLSASVGDRVTITCRASQSLSSWLAWYQQKPGKAPKLLIYKASSLESGVPSRFSGSGSGTDFTLTISSLQPDDFATYYCQQYDIYPRTFGQGTKVEIKR
The EC50 is the concentration giving half of the maximal effect. Consider B1, for which the values for the 50% effective concentration (EC50) in assay [1] and in assay [2] were 0.018 µg/mL and 0.024 µg/mL, respectively.

B2: 34-58 (chimeric) (antibody, V domains shown)
VH: QVHLVQSGTEVRKPGASVKVSCKVSGYTLNELAIHWVRQAPGKGLEWMGGFDPEHGEIIYAQRFQGRITLPEDTSTDTAYMDLVNLRSEDTAVYFCTTEAAPFDYWGQGSLVIVSS
VL: DIQMTQSPSTLSASVGDRVTITCRASQSLSNWLAWYQQKPGKAPKLLIYKASSLESGVPSRFSGSGSGTDFTLTISGLQPDDFATYYCQQYDIYPRTFGQGTKVEIKR
B2: the 50% effective concentration (EC50) in assay [1] was found to be 0.017 µg/mL; in assay [2], 0.013 µg/mL.

B3: 32-36 (chimeric) (antibody, V domains shown)
VH: QVQMVQSGAEVKRPGASVKVSCKVSGYTLNELGIHWVRQAPGKGLEWMGGFDPEHGKIIYAQRFQGRLTMPEDTSTDTAYMELSSLTSEDTAVYYCATVAAPLDYWGQGTLVTVSS
VL: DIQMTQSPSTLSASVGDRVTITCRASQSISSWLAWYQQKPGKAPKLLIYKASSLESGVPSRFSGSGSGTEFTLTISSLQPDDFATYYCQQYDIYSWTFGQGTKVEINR
For B3, the EC50 came to 0.023 µg/mL in assay [1] and 0.028 µg/mL in assay [2].
